Measured values from patent US20230348614A1 (VISTERRA, published 2023).

Experiments:
E111A = biological target: T1, E111A (Homo sapiens, UniProt P18827); assay: alanine scan: flow cytometry on HEK-293T cells expressing the mutant clone, 4320 Fab 0.50 ug/mL, normalised to WT CD138; Range %WT Binding 8; Normalized 4320 vs. BB4 10.4
T1 construct: clone of the alanine scanning library on HEK-293T cells; m17 with one substitution; also called CD138 E111A
T1 sequence (CD138 (SDC1), full length, point mutant, looked up): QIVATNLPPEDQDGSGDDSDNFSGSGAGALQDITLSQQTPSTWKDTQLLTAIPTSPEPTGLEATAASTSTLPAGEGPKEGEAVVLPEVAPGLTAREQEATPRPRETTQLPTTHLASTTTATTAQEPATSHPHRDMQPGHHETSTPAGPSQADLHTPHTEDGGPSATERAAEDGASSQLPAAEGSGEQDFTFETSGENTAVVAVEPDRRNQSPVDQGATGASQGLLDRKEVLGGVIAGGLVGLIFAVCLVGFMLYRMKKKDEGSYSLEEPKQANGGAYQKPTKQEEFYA
Description: (§1) Serial dilutions of each MAb were tested for immunoreactivity against cells expressing target protein (WT) or vector alone. Validation of target expression and optimization of detection and binding of anti-CD138 antibodies both by flow cytometry was completed in replicate (N=4). The optimal screening concentration for each MAb was determined based on the raw signal values and signal-to-background calculations specifically optimized for each test article. Optimized parameters included the use of 10% goat serum as blocking reagent. Primary antibody staining was for 60 minutes at 25° C. Wash buffer include phosphate buffered saline (divalent metal ion free), pH 7.4. […] Secondary antibodies were diluted 1:400 and incubated for 30 minutes at 25° C.
(§2) Library screens of very-high-affinity mAbs can fail to yield critical residues for antibody binding due to deficiencies of such an assay to detect and differentiate critical vs. less critical binding based on affinity and quantification of cell binding. One common approach in the literature is the use of monovalent antibody derived fragments such as Fab usually weakens binding sufficiently to allow identification of critical residues for binding. […] Binding of each test Ab to each mutant clone in the alanine scanning library was determined, in duplicate, and likewise evaluated by flow cytometry.

T143A = biological target: T2, T143A (Homo sapiens, UniProt P18827); assay: alanine scan: flow cytometry on HEK-293T cells expressing the mutant clone, 4320 Fab 0.50 ug/mL, normalised to WT CD138; Range %WT Binding 6; Normalized 4320 vs. BB4 53.2
T2 construct: clone of the alanine scanning library on HEK-293T cells; m17 with one substitution; also called CD138 T143A
T2 sequence (CD138 (SDC1), full length, point mutant, looked up): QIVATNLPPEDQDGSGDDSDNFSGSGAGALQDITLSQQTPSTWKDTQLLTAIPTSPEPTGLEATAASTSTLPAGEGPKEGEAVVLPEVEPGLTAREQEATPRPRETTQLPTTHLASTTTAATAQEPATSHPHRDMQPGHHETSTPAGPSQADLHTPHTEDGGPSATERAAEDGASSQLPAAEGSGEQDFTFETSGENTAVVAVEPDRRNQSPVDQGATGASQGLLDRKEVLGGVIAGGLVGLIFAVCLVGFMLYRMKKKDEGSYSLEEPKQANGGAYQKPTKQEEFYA
Description: as §1, §2

P112A = biological target: T3, P112A (Homo sapiens, UniProt P18827); assay: alanine scan: flow cytometry on HEK-293T cells expressing the mutant clone, 4320 Fab 0.50 ug/mL, normalised to WT CD138; Range %WT Binding 9; Normalized 4320 vs. BB4 21.6
T3 construct: clone of the alanine scanning library on HEK-293T cells; m17 with one substitution; also called CD138 P112A
T3 sequence (CD138 (SDC1), full length, point mutant, looked up): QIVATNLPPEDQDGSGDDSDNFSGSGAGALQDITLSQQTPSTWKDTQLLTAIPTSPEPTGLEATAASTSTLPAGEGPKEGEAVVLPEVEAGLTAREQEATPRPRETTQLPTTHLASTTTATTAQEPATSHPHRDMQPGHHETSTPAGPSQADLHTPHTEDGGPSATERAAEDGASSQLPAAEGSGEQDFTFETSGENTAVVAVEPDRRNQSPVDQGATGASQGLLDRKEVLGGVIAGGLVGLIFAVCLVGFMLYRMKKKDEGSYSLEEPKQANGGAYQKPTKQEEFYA
Description: as §1, §2

R117A = biological target: T4, R117A (Homo sapiens, UniProt P18827); assay: alanine scan: flow cytometry on HEK-293T cells expressing the mutant clone, 4320 Fab 0.50 ug/mL, normalised to WT CD138; Range %WT Binding 13; Normalized 4320 vs. BB4 14.8
T4 construct: clone of the alanine scanning library on HEK-293T cells; m17 with one substitution; also called CD138 R117A
T4 sequence (CD138 (SDC1), full length, point mutant, looked up): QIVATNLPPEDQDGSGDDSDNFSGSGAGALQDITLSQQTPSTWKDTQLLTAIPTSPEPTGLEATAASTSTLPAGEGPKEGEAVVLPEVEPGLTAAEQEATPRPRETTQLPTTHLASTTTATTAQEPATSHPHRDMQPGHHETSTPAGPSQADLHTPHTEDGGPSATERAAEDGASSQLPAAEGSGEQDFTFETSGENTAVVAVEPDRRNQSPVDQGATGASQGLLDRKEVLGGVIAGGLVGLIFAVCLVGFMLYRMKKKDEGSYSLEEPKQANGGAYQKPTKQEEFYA
Description: as §1, §2

G238A = biological target: T5, G238A (Homo sapiens, UniProt P18827); assay: alanine scan: flow cytometry on HEK-293T cells expressing the mutant clone, 4320 Fab 0.50 ug/mL, normalised to WT CD138; Range %WT Binding 9; Normalized 4320 vs. BB4 30.2
T5 construct: clone of the alanine scanning library on HEK-293T cells; m17 with one substitution; also called CD138 G238A
T5 sequence (CD138 (SDC1), full length, point mutant, looked up): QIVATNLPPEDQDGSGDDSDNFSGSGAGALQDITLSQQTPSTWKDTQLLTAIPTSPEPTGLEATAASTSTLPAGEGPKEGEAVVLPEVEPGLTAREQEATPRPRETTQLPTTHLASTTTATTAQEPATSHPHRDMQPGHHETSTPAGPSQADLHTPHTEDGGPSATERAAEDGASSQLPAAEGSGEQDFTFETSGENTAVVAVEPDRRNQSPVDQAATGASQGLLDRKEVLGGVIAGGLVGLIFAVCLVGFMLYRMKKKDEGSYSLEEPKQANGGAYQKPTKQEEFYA
Description: as §1, §2

- Mean %WT Binding (E111A): 13 %WT
- Mean %WT Binding (T143A): 30.8 %WT
- Mean %WT Binding (P112A): 22.6 %WT
- Mean %WT Binding (R117A): 14.4 %WT
- Mean %WT Binding (G238A): 28.3 %WT
B1: Fab fragment of mAb 4320 (Fab, V domains shown)
VH: QVQLVQSGAEVKKPGASVKVSCKASGYSFSSYYMHWVRQAPGQGLEWMGTIHPSDSTTNYNQKFQGRVTMTVDTSTRTAYMELSSLRSEDTAVYYCANFVYWGQGTTVTVSS
VL: DIVMTQTPLSLSVTPGQPASISCKSSKSLLYKDGKTYLNWFLQKPGQSPQLLIYVVSTRASGVPDRFSGSGSGTDFTLKISRVEAEDVGVYYCQQLVEYPYTFGQGTKLEIKR
modifications: N-terminal Q1 observed as pyroglutamic acid (PCA) in the 138-2-5 complex
notes: In the crystal structures heavy chain residues 1-213 were traced; also called Fab4320
